Assay results reported in US20140004122A1, “METHODS FOR TREATING OR PREVENTING CHOLESTEROL RELATED DISORDERS” (AMGEN INC., priority 2011, published 2014).

Key:
[1] = test system: human patient exhibiting symptoms of hypercholesterolemia; experiment: Treatment of hypercholesterolemia (Example 17); assay type: in vivo; settings: therapeutically effective amount
Description: At periodic times during the treatment, the human patient is monitored to determine whether the serum cholesterol level has declined.

[2] = test system: human patient at risk of developing coronary heart disease; experiment: Prevention of coronary heart disease (Example 18); assay type: in vivo; settings: alone, concurrently or sequentially with a statin
Description: A human patient at risk of developing coronary heart disease is identified. […] At periodic times during the treatment, the human patient is monitored to determine whether the patient's total serum cholesterol level changes.

healthy subjects = experiment: Phase 1 ascending single dose study (Example 20); assay type: in vivo, human
human PCSK9 = human PCSK9 (Homo sapiens, UniProt Q8NBP7); experiment: BIAcore affinity analysis; assay type: binding; settings: pH 7.4; read-out: KD hPCSK9
Sequence of human PCSK9 (Q8NBP7 153-692): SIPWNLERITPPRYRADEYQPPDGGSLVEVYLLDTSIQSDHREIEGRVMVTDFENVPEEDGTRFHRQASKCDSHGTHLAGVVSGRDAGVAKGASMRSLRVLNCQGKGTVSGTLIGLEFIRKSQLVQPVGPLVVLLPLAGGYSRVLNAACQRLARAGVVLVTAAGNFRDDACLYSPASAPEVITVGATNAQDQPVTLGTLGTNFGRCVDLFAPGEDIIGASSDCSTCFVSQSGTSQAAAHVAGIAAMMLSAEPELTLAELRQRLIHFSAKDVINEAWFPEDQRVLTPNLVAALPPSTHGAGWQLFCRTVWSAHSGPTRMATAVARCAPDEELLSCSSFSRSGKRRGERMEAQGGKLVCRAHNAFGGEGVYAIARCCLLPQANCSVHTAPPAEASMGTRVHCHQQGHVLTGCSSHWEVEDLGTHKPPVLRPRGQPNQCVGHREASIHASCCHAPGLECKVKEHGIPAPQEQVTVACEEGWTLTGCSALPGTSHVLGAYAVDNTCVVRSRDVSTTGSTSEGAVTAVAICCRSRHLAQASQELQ
Procedure: Briefly, the surface plasmon resonance experiments were performed using Biacore 2000 optical biosensors (Biacore, GE Healthcare, Piscataway, N.J.). […] The concentration of PCSK9 protein was varied at 2 fold intervals (the analyte) and was injected over the immobilized antibody surface (at a flow rate of 100 μl/min for 1.5 minutes). Fresh HBS-P buffer (pH 7.4, 0.01 M Hepes, 0.15 M NaCl, 0.005% surfactant P-20, Biacore) supplemented with 0.01% BSA was used as binding buffer.
The binding signal obtained was proportional to the free PCSK9 in solution.
Antibody binding kinetic parameters including ka (association rate constant), kd (dissociation rate constant), and KD (dissociation equilibrium constant) were determined using the BIA evaluation 3.1 computer program (BIAcore, Inc. Piscataway, N.J.).

[3] = Osmolality of 21B12 formulations; assay type: physicochemical
Description: In certain embodiments, the pharmaceutical formulation is isotonic with an osmolality ranging from between about 250 to about 350 miliosmol/kg, e.g., about 250 mOsm/kg, about 260 mOsm/kg, about 270 mOsm/kg, about 280 mOsm/kg, about 290 mOsm/kg, about 300 mOsm/kg, about 310 mOsm/kg, about 320 mOsm/kg, about 330 mOsm/kg, about 340 mOsm/kg, or about 350 mOsm/kg, and including all values in between. As used herein, “osmolality” is the measure of the ratio of solutes to volume fluid. In other words, it is the number of molecules and ions (or molecules) per kilogram of a solution. Osmolality may be measured on an analytical instrument called an osmometer, such as Advanced Instruments 2020 Multi-sample Osmometer, Norwood, Mass. The Advanced Instrumetns 2020 Multi-sample Osmometer measures osmolality by using the Freezing Point Depression method. The higher the osmolytes in a solution, the temperature in which it will freeze drops. Osmolality may also be measured using any other methods and in any other units known in the art such as linear extrapolation.

[4] = test system: human patient exhibiting a risk of developing hypercholesterolemia; experiment: Prevention of hypercholesterolemia (Example 19); assay type: in vivo; settings: regularly administered (e.g., one time weekly)
Description: At periodic times during the treatment, the patient is monitored to determine whether serum cholesterol levels have decreased.

cynomolgus monkeys = experiment: Serum lipids after single subcutaneous dose in cynomolgus monkeys (Example 36); assay type: in vivo, cynomolgus monkey; settings: 0.5 mg/kg single SC
Description: Briefly, naive male cynomolgus monkeys were acclimated to their environment for at least 2 weeks prior to experimentation. Animals were randomized into treatment groups based on a pre-screen of their serum TC, HDL-C, LDL-C, and triglyceride levels, and their body weight. After 1 week, animals were fasted overnight, and bled from the peripheral vasculature (cephalic or saphenous vein), for measurement of baseline serum lipid levels at a time point designated T=0. […] Fasting blood samples were then collected from animals at designated time points over a 45 day period.
At specified time points, blood was collected from animals under overnight fasting conditions from the peripheral vasculature (cephalic or saphenous vein). Whole blood was allowed to coagulate for 30 minutes at room temperature. Following centrifugation at 3,000 rpm for 20 minutes, serum was collected. Direct serum cholesterol analysis was performed using the Cobas Integra 400 analyzer (Roche Diagnostics Inc, Indianapolis, Ind.). Apolipoprotein B serum levels were determined at specified time points (day 0, 3, 6, 15, 24 and 33) by Anilytics, MD, with the following methodology. A 17 μL aliquot of the sample (no preparation) was used for analysis with a Hitachi 717 Analyzer using a 6 points standard curve. If the initial value of the sample was higher than the standard curve linearity, then the sample was diluted and repeated with the result multiplied by the appropriate dilution factor. The reagents for the assay (APO-B Reagent Kit #86071, Antibody Set #86060, Control Set #86103) were obtained from DiaSorin (Stillwater, Minn.).
A statistical model that considers baseline as a covariate and treatment group as a fixed effect was fit to the log transformed response at each time point for LDL-C, HDL-C, TC, and triglycerides. Tukey's multiple comparison correction was applied to adjust the pair wise comparisons at each time point. The statistical significance was evaluated at alpha=0.05 using adjusted p-values.

B1: 21B12: human anti-PCSK9 monoclonal antibody; light/heavy variable region SEQ ID NO 23/49 (antibody, listed as Homo sapiens, V domains shown)
VH: QVQLVQSGAEVKKPGASVKVSCKASGYTLTSYGISWVRQAPGQGLEWMGWVSFYNGNTNYAQKLQGRGTMTTDPSTSTAYMELRSLRSDDTAVYYCARGYGMDVWGQGTTVTVSS
VL: QSALTQPASVSGSPGQSITISCTGTSSDVGGYNSVSWYQQHPGKAPKLMIYEVSNRPSGVSNRFSGSKSGNTASLTISGLQAEDEADYYCNSYTSTSMVFGGGTKLTVL
serum cholesterol levels vs patients not receiving the treatment [1]: reduced serum cholesterol levels
serum cholesterol vs patients not receiving the treatment [2]: reduced serum cholesterol
AUC0-inf (median) (healthy subjects; 420 mg IV group): 1550 µg·days/mL
median maximum observed concentration (Cmax) (healthy subjects; 420 mg IV group): 139 µg/mL
subjects with treatment-related adverse events (healthy subjects; 18 of 42 subjects): 43%
subjects with treatment-emergent adverse events (healthy subjects; 21B12 at any dose, 29 of 42 subjects): 69%
anti-21B12 antibodies in serum (healthy subjects; all 42 subjects who received 21B12): negative
effects on laboratory variables, ECGs, vital signs (healthy subjects; in vivo): no trends indicative of clinically important effects
tolerability (healthy subjects; single SC and IV doses up to 420 mg): well tolerated
serious adverse events (healthy subjects; single SC or IV dose): No adverse events were reported as serious
LDL-C nadir observed within (after dosing) (healthy subjects; single dose): ≤ 2 weeks
elimination (healthy subjects; single dose SC or IV): nonlinear (concentration-dependent) elimination
suppression of PCSK9 (healthy subjects; single doses ≧70 mg SC): Complete suppression of PCSK9
Kd (human PCSK9): 0.19 nM
Osmolality (mOsmol/kg) ([3]; 21B12 73 mg/mL, 10 mM Na acetate, pH 5.2 +3% proline): 253 mOsmol/kg
Osmolality (mOsmol/kg) ([3]; 21B12 76 mg/mL, 10 mM Na acetate, pH 5.2): 53 mOsmol/kg
Osmolality (mOsmol/kg) ([3]; 21B12 116 mg/mL, 10 mM sodium acetate, pH 4.8, 50 mM methionine + 2% benzyl alcohol): 329 mOsmol/kg
Osmolality (mOsmol/kg) ([3]; 21B12 116 mg/mL, 10 mM sodium acetate, pH 4.8, 150 mM arginine): 241 mOsmol/kg
Osmolality (mOsmol/kg) ([3]; 21B12 116 mg/mL, 10 mM sodium acetate, pH 4.8, 1.5% proline + 1% benzyl alcohol): 277 mOsmol/kg
Osmolality (mOsmol/kg) ([3]; 21B12 116 mg/mL, 10 mM sodium acetate, pH 4.8, 2% proline + 1% benzyl alcohol): 313 mOsmol/kg
Osmolality (mOsmol/kg) ([3]; 21B12 116 mg/mL, 10 mM sodium acetate, pH 4.8, no excipients): 72 mOsmol/kg
Osmolality (mOsmol/kg) ([3]; 21B12 117 mg/mL, 10 mM Na acetate, pH 4.5): 59 mOsmol/kg
Osmolality (mOsmol/kg) ([3]; 21B12 122 mg/mL, 10 mM Na acetate, pH 5.2 +3% proline): 274 mOsmol/kg
Osmolality (mOsmol/kg) ([3]; 21B12 130 mg/mL, 10 mM Na acetate, pH 5): 59 mOsmol/kg
Osmolality (mOsmol/kg) ([3]; 21B12 148 mg/mL, 10 mM Na acetate, pH 5.2 +3% proline): 301 mOsmol/kg
Osmolality (mOsmol/kg) ([3]; 21B12 […], 10 mM Na acetate, pH 4): 59 mOsmol/kg
Osmolality (mOsmol/kg) ([3]; 21B12 […], 10 mM Na acetate, pH 5.2 +150 mM NaCl): 346 mOsmol/kg
Osmolality (mOsmol/kg) ([3]; 21B12 […], 10 mM Na acetate, pH 5.2 +3% proline): 252 mOsmol/kg
Osmolality (mOsmol/kg) ([3]; 21B12 […], 10 mM Na acetate, pH 5.5): 64 mOsmol/kg
Osmolality (mOsmol/kg) ([3]; 21B12 […], 10 mM Na acetate, pH 5.5 +150 mM methionine and 3% benzyl alcohol): 520 mOsmol/kg
serum cholesterol levels vs subjects that are not treated [4]: lowered serum cholesterol levels
LDL-C returned to levels similar to control animals by day (cynomolgus monkeys): ≤ 6 days
TC returned to levels similar to control animals by day (cynomolgus monkeys): ≤ 4 days
maximal lowering of LDL-C as compared to anti-KLH IgG2 control antibody-treated monkeys (cynomolgus monkeys): 64%
maximal lowering of TC as compared to control animals (cynomolgus monkeys): 20%
time of maximal LDL-C lowering after injection (cynomolgus monkeys): 3 days
time of maximal TC lowering after injection (cynomolgus monkeys): 3 days
HDL-C levels (cynomolgus monkeys; 45 day study): lowered HDL-C at a single time point, 18 days after injection
triglycerides levels (cynomolgus monkeys; 45 day study): No statistically significant changes
HDL-C or triglyceride levels vs anti-KLH IgG2 control antibody-treated monkeys (cynomolgus monkeys; alpha=0.05): statistically significant change in HDL-C at a single time point (day 18 following injection)
serum ApoB levels vs anti-KLH IgG2 control antibody-treated monkeys (cynomolgus monkeys; days 3, 6, 15, 24 and 33): statistically significant lower ApoB levels at day 3 only
maximal lowering of LDL-C (vs anti-KLH IgG2 control antibody at the same time point) (cynomolgus monkeys; printed as negative change): −64%
